assay: soluble on expression in E. coli; label from the status in PepcDB or PDB records

| Sequence | soluble on expression in E. coli |
| --- | --- |
| MGSDKIHHHHHHMRIQQLHYIIKIVETGSMNEAAKQLFITQPSLSNAVRDLEREMGIEIFIRNPKGITLTKDGVEFLSYARQVVEQTALLEERYKSQGHTRELFSVSAQHYAFVVNAFVSLLKETDMTRYELFLRETRTYEIIDDVKNFRSEIGVLFLNSYNHDVLTKMFDDNHLTYTSLFKAHPHIFVSKDNPLAKHQSVSLSDLEDFPYLSYDQGIHNSFYFSEEIMSQISHKKSIVVSDRATLFNLMIGLDGYTIATGILNSNLNGDNIVSIPLEVDDEIDIIYLKHEKANLSKMGEKFIDYLLEEVKFDK | not soluble |
| SPQRKVANNKQNIEYNDDNHVHHMHSHNPPIDCAILLPSKPRFIFQDVTVFNFNVSGNPSDLNTPVVQFNLSFRNPNANIRIYYDTLDVYAFYGNGSQQIIIPTPMPSTYQGHKEDSVWSPYIPVVPYNALYLDDQHHSRDGNMLMLHLDGRISWLLLGN | soluble |
| MMTKTTTVPKNVYELAQERLRIVFNEFDNVYLSFSGGKDSGVLLSLCIDYIRRNNLKIKLGVFHMDYEIQYKMTIDYIARMLEDNKDILEVYRVCVPFRVATCTSMYQSFWRPWEDSKKDLWVRPLPENAMTKEDFPFYNTQMWDYEFQMRFASWLHEKKDAVRTCCLIGIRTQESFNRWRCIYLNRKYQMYHRYRWTSKVGNDIFNAYPIYDWKTTDVWTANGKFKWDYNKLYDYYYW | not soluble |
| MGSDKIHHHHHHMRTLFSQQQWIDMKVLVTGATSGLGRNAVEFLCQKGISVRATGRNEAMGKLLEKMGAEFVPADLTELVSSQAKVMLAGIDTLWHCSSFTSPWGTQQAFDLANVRATRRLGEWAVAWGVRNFIHISSPSLYFDYHHHRDIKEDFRPHRFANEFARSKAASEEVINMLSQANPQTRFTILRPQSLFGPHDKVFIPRLAHMMHHYGSILLPHGGSALVDMTYYENAVHAMWLASQEACDKLPSGRVYNITNGEHRTLRSIVQKLIDELNIDCRIRSVPYPMLDMIARSMERLGRKSAKEPPLTHYGVSKLNFDFTLDITRAQEELGYQPVITLDEGIEKTAAWLRDHGKLPR | not soluble |
| MGSDKIHHHHHHLKAIKYGVTREHIREFKVALTDGKVYKFGSKSVKSSSGYSLNDLIIGSEGTLGVITEAVLRLYPRPKHALNAIIPFPTLDDAIESVPAILASGVEYMGRKVLNLWEKYYDATFPIKEGDGFIILGIDSFTASDAEAQLAQALEAVKPFHALKETVLNAESDEAKTIWDAREKLLLAIQKSTPKMDEVDVSVPINKIPLVLHRIEELEKEEDMRIPNFGHAGDGNLHIYLCSDDMTDEEFAKKGDNVISELYKTAKSVDGNMSGEHGVGYARQNYYEDFYGKDYTDLLRKVKGLFDPKGILNPDKIFPLD | not soluble |
| MLLSVPLLLGLLGLAAADPAIYFKEQFLDGDAWTNRWVESKHKSDFGKFVLSSGKFYGDLEKDKGLQTSQDARFYALSAKFEPFSNKGQTLVVQFTVKHEQNIDCGGGYVKLFPSGLDQKDMHGDSEYNIMFGPDICGPGTKKVHVIFNYKGKNVLINKDIRCKDDEFTHLYTLIVRPDNTYEVKIDNSQVESGSLEDDWDFLPPKKIKDPDAAKPEDWDERAKIDDPTDSKPEDWDKPEHIPDPDAKKPEDWDEEMDGEWEPPVIQNPEYKGEWKPRQIDNPDYKGTWIHPEIDNPEYSPDANIYAYDSFAVLGLDLWQVKSGTIFDNFLITNDEAYAEEFGNETWGVTKAAEKQMKDKQDEEQRLKEEEEDKKRKEEEEAEDKEDDDDRDEDEDEEDEKEEDEEESPGQAKDEL | soluble |
| MRGSHHHHHHGMASMVVNNPNNWHWVDKNCIGWAKEYFKQKLVGVEAGSVKDKKYAKIKSVSSIEGDCEVNQRKGKVISLFDLKITVLIEGHVDSKDGSALPFEGSINVPEVAFDSEASSYQFDISIFKETSELSEAKPLIRSELLPKLRQIFQQFGKDLLATHGNDIQV | soluble |
| MRILILGMGGTIASVKGERGYESALSVSKILKLAGISSEAKIEARDLMNVDSTLIQPSDWERLAKEIEKEVWEYDGIVITHGTDTMAYSASMLSFMLRNPPIPIVLTGSMLPITEKNSDAPFNLRTALEFVKLGIRGIYIAFNGKVMLGVRASKIRSMGFDAFESINYPNVAEIKDDKLRILHIPDFYGDEFFSDIKYEPKVLVIKLIPGLSGDIVREALRLGYKGIILEGYGVGGIPYRGTDLFEVVSSISKRIPVVLTTQAIYDGVDLQRYKVGRIALEAGVIPAGDMTKEATITKLMWILGHTKNIEEVKQLMGKNITGELTRVS | soluble |
| MVQHLSAQEIIQYISDAKKSTPLKVYVNGHFENVTFPESFKVFGSEHSKVIFCEANEWKQFYQQNHSLITELEIEMDRRNSAIPLKDL | not soluble |
| MSLRASTVKQHAFGLLIPELGQTEIFEPICQGMVAAQEAHNHVLIWGRSLAGSETTEADAKDVCARLISNRVSGVFFAPIEANPQKDAINRIISTMLSDAKIPIVLLDRDIVDYPQRSKFDVVGIDNRRAGCVATQHLIDAGCRRIGFIGRPHLAPSCVARCNGYRETVSNSSIPLAPTFAERLDPSDPILVGKVMDRHKPDGIVCSNDRTAALLMRTFATLKIAVPDQVRLVAFDDVKYASLVTVPLTTIHQPCDQLGAAAIQAMVQRIESPDMPPRDILVDFHLVVRESCGARMAREGHHHHHH | soluble |
| MGSDKIHHHHHHMKETVYFGTYTRRTSQGIYKADFDTETGQLSNLELFAAEPSPTYLAFDQHQHLYTVGSQDDKGGIAAYQTDGTVLNHVVEEGAPHCYVAVDEKRDLVYAANYHKGQVLVYKRQEDGSLLLSDMDQHSGQGPHENQASPHVHYTDLTPDHYLVTCDLGTDQVITYDLDQEGKLSKLYTYHSKPGAGSRHIIFHNHYKIAYLICELNSTIEVLIYDGVGEFERMQVISTLPEAYEGFNGTAAIHLSKDGKYLYASNRGHDSIAVYTILADGSLELLEIVPTHGQTPRDFDLTPDQKFLIVVHQDSDNATVFKRNCDNGRLAELSNDFHVPEAVCIRFAP | not soluble |
| MTTILAFDIETVPDVQGIRTLYELPSSLPDDEVVLFAQQKRRAQTGGDFMQHHLHQVVAISCCMRWGQDKVHVGTIGEMDDGEEVVIAKFFELIEKHTPQLVSWNGGGFDLPVLHYRSLIYGINAARYWDMGDGDFGDSRDFKWNNYISRYHQRHCDLMDLLALYQPRANVPLDDMAKLCGFPGKLGMDGSKVWEAFHTGRLKEIRNYCETDAANTYLMYLRFCLVSGRLDADEYEMEIKRMRNYLSAQAGEKPHWEEFVRAWE | not soluble |
| MPKPYVAINMAELKNEPKTFEMFASVGPKVCMVTARHPGFVGFQNHIQIGILPFGNRYGGAKMDMTKESSTVRVLQYTFWKDWKDHEEMHRQNWSYLFRLCYSCASQMIWGPWEPIYEIIYANMPINTEMTDFTAVVGKKFAEGKPLDIPVISQPYGKRVVAFAEHSVIPGKEKQFEDAIVRTLEMLKKAPGFLGAMVLKEIGVSGIGSMQFGAKGFHQVLENPGSLEPDPNNVMYSVPEAKNTPQQYIVHVEWANTDALMFGMGRVLLYPELRQVHDEVLDTLVYGPYIRILNPMMEGTFWREYLNEQAWRHPQFGG | soluble |
| MGSDKIHHHHHHMRKVAIYSRVSTINQAEEGYSIQGQIEALTKYCEAMEWKIYKNYSDAGFSGGKLERPAITELIEDGKNNKFDTILVYKLDRLSRNVKDTLYLVKDVFTANNIHFVSLKENIDTSSAMGNLFLTLLSAIAEFEREQIKERMQFGVMNRAKSGKTTAWKTPPYGYRYNKDEKTLSVNELEAANVRQMFDMIISGCSIMSITNYARDNFVGNTWTHVKVKRILENETYKGLVKYREQTFSGDHQAIIDEKTYNKAQIALAHRTDTKTNTRPFQGKYMLSHIAKCGYCGAPLKVCTGRAKNDGTRRQTYVCVNKTESLARRSVNNYNNQKICNTGRYEKKHIEKYVIDVLYKLQHDKEYLKKIKKDDNIIDITPLKKEIEIIDKKINRLNDLYINDLIDLPKLKKDIEELNHLKDDYNKAIKLNYLDKKNEDSLGMLMDNLDIRKSSYDVQSRIVKQLIDRVEVTMDNIDIIFKF | not soluble |
| MNSPNILLDSFKIALVKKDSKQAFSLIERLSLEQIKSLDLDALLSLKEMIAQSIELLEKEKEELQLQMHKAKKIQKFLS | not soluble |
